From patent publication US20200138986A1 (FREDAX, published 2020) come the findings set out here.

For assay [1], the target named is T1, free prostate-specific antigen (fPSA) (human, UniProt P07288 25-261).
T1 construct: In the IRMA, fPSA was spiked into female plasma and captured by mAb H117; also called hk3; human kallikrein 3
Briefly: Time-resolved Eu fluorescence immunoassay: coat goat anti-human polyclonal, 5A10-Fab 15 ng/well, Eu-PSA titrated from about 0.15 to 20 ng/well [upper and lower panels].

The target of assay [2] is T2, human glandular kallikrein 2 (hK2) (human, UniProt P20151 25-261). Briefly: cell-based or functional assay.
T2 sequence (P20151 25-261 limits assumed): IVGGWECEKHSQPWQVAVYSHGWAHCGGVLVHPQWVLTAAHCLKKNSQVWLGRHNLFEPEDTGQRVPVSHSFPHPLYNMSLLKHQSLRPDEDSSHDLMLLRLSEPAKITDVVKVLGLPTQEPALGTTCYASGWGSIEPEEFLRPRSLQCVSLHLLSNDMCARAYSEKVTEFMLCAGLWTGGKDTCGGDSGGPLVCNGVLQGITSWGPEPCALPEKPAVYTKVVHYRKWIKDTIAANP
The target of assay [3] is T2, human glandular kallikrein 2 (hK2). Briefly: method not stated (told in the Materials section of Example 10).

A value given as a limit tells only on which side of the number the result lay.

T1 sequence (P07288 25-261 limits assumed): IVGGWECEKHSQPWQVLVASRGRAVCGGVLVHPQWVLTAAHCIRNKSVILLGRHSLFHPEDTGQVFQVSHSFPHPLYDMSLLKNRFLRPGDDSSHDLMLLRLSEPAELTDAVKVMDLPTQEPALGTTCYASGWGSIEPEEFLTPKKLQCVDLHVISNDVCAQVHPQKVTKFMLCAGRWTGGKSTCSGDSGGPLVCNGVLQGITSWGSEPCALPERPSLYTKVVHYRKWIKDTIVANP

B1: 5A10-Fab (Fab, V domains shown)
VH: EVQLVESGPGILQPSQTLSLTCSFSGFSLSTTGMGVSWIRQPSGKGLEWLAHLYWDEDKRYNPSLKSRLTISEDSSRNQVFLKITSVGPADSATYYCARKGYYGYFDYWGQGTALTVSS
VL: DIVMTQSQKFMSTSVGDRVSVTCKASQNVNTDVAWYQQKPGQSPKALIFSTSYRSSGVPDRFTGSGSGTDFTLTITNVQSEDLAEYFCQQYSNYPLTFGAGTKVDLN
notes: also called exemplary 5A10-Fab; Fab fragment of anti-PSA antibody 5A10
For B1, the binding result in assay [1] is “binds”.

B2: 111In-CHX-A''-DTPA-11B6 (antibody, V domains shown)
VH: DVQLQESGPGLVKPSQSLSLTCTVTGNSITSDYAWNWIRQFPGNRLEWMGYISYSGSTTYSPSLKSRFSITRDTSKNQFFLQLNSVTPEDTATYFCATGYYYGSGFWGQGTLVTVSS
VL: DIVLTQSPASLAVSLGQRATISCRASESVEYFGTSLMHWYRQKPGQPPKLLIYAASNVESGVPARFSGSGSGTDFSLNIQPVEEDDFSMYFCQQTRKVPYTFGGGTKLEIK
modifications: CHX-A''-DTPA chelator conjugated to the antibody and labelled with 111In; sites not stated
For B2, the “tumor uptake in hK2-expressing xenografts (LnCAP) against hK2-negative xenografts (DU145) at 48 hpi” value in assay [2] is more than 3 fold.

B3: mAb 11B6 (mouse monoclonal anti-hK2 antibody) (antibody, V domains shown)
VH: B2 VH
VL: B2 VL
notes: Whole mouse monoclonal antibody obtained from the University of Turku; also called m11B6; mouse mAb 11B6
What is called Kd is the free concentration of one partner at which half of the binding sites on the other are occupied at equilibrium, for simple one-to-one binding. Regarding B3, in assay [3], the Kd was approximately 1.2 nM.
